{"source": "patent US20250034601A1", "about": "“HETERODIMERIC BENZALDEHYDE SYNTHASE, METHODS OF PRODUCING, AND USES THEREOF” (Purdue Research Foundation, priority 2021, published 2025)", "proteins": {"B1": {"name": "Arabidopsis thaliana benzaldehyde synthase (AtBS), recombinant heterodimer AtBSα (SEQ ID NO: 5) / AtBSβ (SEQ ID NO: 8), wild type, MBP-tagged (Arabidopsis … (protein)", "chain 1": "MSNHQTQVLKLLEPWCELKDKVVLVTGASSGIGREICLDLAKAGCQVIAAARRVDRLNSLCSEINSFSSTGIQAAALELDVSSDAATIQKAVREAWDIFGKIDALINNAGIRGNVKSSLDLSEDEWDNVFKTNLKGPWLVSKHVCMLMRDAKRGGSVINISSIAGIRGMLPGGLAYACSKGGVDTMSRMMALELGVHKIRVNSIAPGLFKSEITQGLMQKEWLKNVTERTVPLKVQQTVDPGLTSLVRYLIHDSSQYISGNTYIVDSGATLPGVPIFSSL", "chain 2": "MENPAKRVLMTSNGDEVSRNIAFHLAKHGCKLVMMGNEGSLRSIVDKIRDSIEGAFPADVIALDMESDSEVAFHAAVQKAWELSGHFDAFLNSYTYQGKVQDILQVSQDEFHRITKINLTAPWFLLKAVATRMKDHGSGGSIVFMATIASGERALYPGADAYASTSAAIHQLVRASAMSLGKHKIRVNMISRGLHLDDEYTASVGRDRAQKLVKDAAPLGQWLNPDTDLYSTVIYLISDGSRFMTGTTVLVDGAQSLTRPRLKSYM", "notes": "full-length CDS from flower cDNA"}}, "substrate": "CC(C)(COP(=O)(O)OP(=O)(O)OC[C@H]1O[C@@H](n2cnc3c(N)ncnc32)[C@H](O)[C@@H]1OP(=O)(O)O)[C@@H](O)C(=O)NCCC(=O)NCCSC(=O)c1ccccc1", "test": "purified protein, by the assay type", "assay_type": "biochemical, Arabidopsis thaliana", "conditions": "other: apparent, measured at 4 mM NADPH, pH 6.5, 28° C.", "protocol": "The reaction was initiated by adding a protein and incubated at 28° C. for 30 minutes, and the reactions were then terminated by adding 100 μL of 100% ice-cold methanol (MeOH). The BS enzyme assays were performed at an appropriate enzyme concentration so that reaction velocity was proportional to enzyme concentration and linear during the incubation time period. Km and Vmax were determined by non-linear fit to the Michaelis-Menten equation using Graphpad Prism, v8.2.0.\nTriplicate assays were performed for all data points.\nAfter centrifugation at 15,000 g for 20 minutes, 5 μL of the supernatant were subjected to high-performance liquid chromatography (HPLC) analysis using an Agilent 1260 Infinity II system (Agilent Technologies, Inc., Santa Clara, CA) equipped with an InfinityLab Poroshell 120 EC-C18 column (3.0×150 mm, 2.7 μm) maintained at 35° C. Products were separated with a 15-minute linear gradient of 10% aqueous acetonitrile solution to 100% acetonitrile and monitored at 248 nm using a diode array detector (DAD). Benzaldehyde was identified by comparing the retention time and absorption spectrum with authentic standard.\nQuantitation was achieved by using standard curve generated from authentic standard and product verification was performed by GC-MS.\nRecombinant BS proteins were produced in E. coli by expressing the corresponding coding regions (CDS) subcloned into an expression vector pMAL-c5X (New England BioLabs, Ipswich, MA) containing a maltose binding protein (MBP) tag using ClonExpress II One Step Cloning Kit (Vazyme Biotech Co., Piscataway, NJ).\nAfter sequence verification, the desired plasmids were transformed into Rosetta2 (DE3) pLysS competent cells (MilliporeSigma, Burlington, MA). Single colonies were picked and cultured overnight in 2 ml LB medium containing 100 mg/L carbenicillin and 34 mg/L chloramphenicol at 37° C. Overnight cultures were then diluted 100-fold with LB medium and continued to culture at 37° C. until OD600 reached ˜0.5.\nAfter cooling the cell culture on ice for 10 minutes, isopropyl β-D-1-thiogalactopyranoside (IPTG) was added to a final concentration of 0.1 mM and cells were incubated at 28° C. with shaking for additional 2.5 to 3 hours. After harvesting cells by centrifugation, their lysis and protein purification were performed according to the manufacturer's protocol of Amylose Resin (New England Biolabs, Ipswich, MA)."}
{"protein": "B1", "values": [{"measurement": "Km", "value": "242.8 ± 28.2", "unit": "µM"}, {"measurement": "Vmax", "value": 0.864, "unit": "µmol/min/mg"}, {"measurement": "kcat", "value": "2.12 ± 0.08", "unit": "s⁻¹"}, {"measurement": "kcat/Km", "value": "8700 ± 1100", "unit": "M⁻¹ s⁻¹"}]}
